According to article PMC7225089, “A long lost key opens an ancient lock: Drosophila Myb causes a synthetic multivulval phenotype in nematodes” (Biology Open, 2020):

T1: C. elegans LIN9-LIN52 heterodimeric Myb-binding domain complex (C. elegans, UniProt P30630 442-559; Q10120 75-139)
T1 construct: also called nematode LIN9-LIN52; ceLIN9; source: E. coli, co-expressed, purified (glutathione-sepharose, anion exchange, TEV cleavage, Superdex 200); not shown: GST, N-terminal, cleaved
T1 sequence (looked up) 1: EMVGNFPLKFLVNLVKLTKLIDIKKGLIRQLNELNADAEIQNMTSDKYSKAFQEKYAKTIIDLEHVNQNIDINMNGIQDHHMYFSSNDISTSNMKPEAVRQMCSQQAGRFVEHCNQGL
T1 sequence (looked up) 2: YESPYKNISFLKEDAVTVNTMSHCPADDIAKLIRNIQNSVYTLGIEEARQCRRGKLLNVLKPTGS


Assays:
[1] = target: Drosophila LIN9-LIN52 heterodimeric Myb-binding domain complex (D. melanogaster); experiment: ITC; Myb fragment (~500 μM) in the syringe injected into LIN9-LIN52 heterodimer (~25–50 μM) at 25°C; 20 mM Tris, 150 mM NaCl, 1 mM beta mercaptoethanol, pH 8.0; MicroCal VP-ITC; triplicate
[2] = target: T1, C. elegans LIN9-LIN52 heterodimeric …; experiment: as above; settings: both partners purified

Kd [1] | Kd [2] | Binder
3 µM | 7 µM | VIDPKWARVACGKSRDQMFMEEQAYACLKNL (domain or fragment, D. melanogaster, UniProt P04197 602-632, looked up, Expressed from the pGEX vector and 'purified as described for the LIN9-LIN52 complex'; also called Drosophila Myb; dmMyb; source: E. coli, purified (glutathione-sepharose, anion exchange, TEV cleavage, Superdex 200); not shown: GST, N-terminal, cleaved) [Drosophila melanogaster Myb MuvB-binding domain (residues 602-632), wild type]
41 µM | 70 µM | VIDPAAARVACGKSRDQMFMEEQAYACLKNL (domain or fragment, D. melanogaster, UniProt P04197 602-632, looked up, Expressed from the pGEX vector and 'purified as described for the LIN9-LIN52 complex'; also called KW; source: E. coli, purified (glutathione-sepharose, anion exchange, TEV cleavage, Superdex 200); not shown: GST, N-terminal, cleaved)
